Measured values taken from patent US6767738B1, “Method of isolating adult mammalian CNS-derived progenitor stem cells using density gradient centrifugation” (The Salk Institute for Biological Studies, priority 1999, dated 2004).

B1: NGF: mouse 2.55 NGF, nerve growth factor (protein, UniProt P01139 122-241, looked up)
Beta-nerve growth factor: SSTHPVFHMGEFSVCDSVSVWVGDKTTATDIKGKEVTVLAEVNINNSVFRQYFFETKCRASNPVESGCRGIDSKHWNSYCTTTHTFVKALTTDEKQAAWRFIRIDTACVCVLSRKATRRG
B2: BDNF: brain-derived neurotrophic factor (protein, UniProt P23560 19-247, looked up)
Neurotrophic factor BDNF …: APMKEANIRGQGGLAYPGVRTHGTLESVNGPKAGSRGLTSLADTFEHVIEELLDEDQKVRPNEENNKDADLYTSRVMLSSQVPLEPPLLFLLEEYKNYLDAANMSMRVRRHSDPARRGELSVCDSISEWVTAADKKTAVDMSGGTVTVLEKVPVSKGQLKQYFYETKCNPMGYTKEGCRGIDKRHWNSQCRTTQSYVRALTMDSKKRIGWRFIRIDTSCVCTLTIKRGR

Tests used:
Assay type in all cases: cell-based, rat
[1] = tested on: c-fos mRNA (Trk receptor tyrosine kinase signaling); experiment: RT-PCR analysis of neurotrophin-dependent c-fos induction; details: for induction of c-fos mRNA: proliferating controls treated with neurotrophin
Experimental: (§1) Cell Culture. For proliferating conditions, clonal stem cells (AP14) were cultured in Dulbecco's Modified Eagles Medium/Ham's F12 (DMEM/F12, 1:1) containing N2 supplement (Gibco BRL, Gaithersburg, Md.) and 20 ng/ml rhFGF-2 (provided by A. Baird, Prizm Pharmaceuticals Inc., La Jolla, Calif.). Culture dishes (Becton Dickinsin Labware, Lincoln Park, N.J.) were coated with polyomithine and mouse laminin as previously described by Ray, et al., Proliferation, differentiation and long-term culture of primary hippocampal neurons, Proc Natl Acad Sci USA 90:3602-3606 (1993). For differentiation experiments, cells were plated into polyornithine/laminin coated glass chamber slides (Nunc, Naperville, Ill.) at a density of 2.5—103 per cm2. The cells were incubated for 24 hrs in normal N2 medium containing 20 ng/ml FGF-2, and then the medium was replaced by N2 medium containing 0.5% […] (FBS) and 0.01% DMSO (control solvent) or […] all-trans retinoic acid (Sigma, St. Louis, Mo.). For further differentiation, the medium was replaced by N2 medium containing 0.5% FBS and one of the following: sterile water (control solvent), mouse 2.55 NGF (50 ng/ml, Boehringer Mannheim, Indianapolis, Ind.), rhBDNF (20 ng/ml, Alomone Labs, Jerusalem, Israel), rhNT-3 (40 ng/ml, Genentech, South San Francisco, Calif.). The medium was replaced every two days. For inhibition of the tyrosine kinase activity of the Trk receptors, K-252a (100 nM, Calbiochem, San Diego, Calif.) was added to the medium.
Reverse Transcription-PCR Analysis. Total RNA from stem cells was isolated using RNeasy Total RNA Kits (Qiagen, Chatsworth, Calif.) according to manufacturer's instructions. Fifty nanograms of total RNA was reverse transcribed using avian myeloblastosis virus reverse transcriptase (Promega, Madison, Wis.) with random hexamers ([…]) as primers in a […] reaction mixture. For PCR amplification, two sets of specific oligonucleotide pairs ([…]) were used: one directed to the transcript of interest, and one for a constitutively expressed transcript, either ribosomal protein L27 or L27a. Reactions were performed in a […] reaction mixture containing 10 mM Tris-Cl (pH 8.4), 50 mm KCl, 1.5 mM MgC12, […] each of the four dNTPs, 2 mCi of [a-32P]dCTP and 5 units of Taq polymerase (Promega) using a thermal cycler (Perkin-Elmer, Foster City, Calif.) with a regimen of 1 min at 94° C., 2 min at 60° C. (55° C. for trk receptors) and 2 min at 72° C. for 23 cycles Fifty microliters of each reaction was analyzed by electrophoresis on 8% polyacrylamide gels followed by autoradiography. […] Under these conditions, the L27 amplification product was directly proportional to the amount of input RNA, up to 50 ng total RNA. Oligonucleotide primers used are as follows: […]
RA treatment also results in neurotrophin-dependent induction of c-fos. Transient and rapid induction of immediate early genes such as c-fos is a well-characterized response to extracellular stimuli in neural cells. c-fos is induced after neurotrophin treatment in cultured […] hippocampal or cortical cells and the signaling cascade following c-fos induction is considered to be integral to subsequent steps in differentiation. To determine whether upregulation of mRNAs for trk receptors and p75NGFR observed in the stem cell cultures results in the acquisition of functional Trk-dependent stimulation of c-fos, mRNA was examined by RT-PCR analysis after stimulating RA-treated cells with neurotrophins. […]

[2] = tested on: ACSC cultures; experiment: Neuronal transmitter phenotype after RA priming and neurotrophin treatment (GABA, TH, calbindin, AChE); details: neurotrophin after 6 days RA
Experimental: as §1
Immunofluorescence. An immunofluorescent staining was performed as previously described (Gage F H, Ray J, Fisher L J (1995a) Isolation, characterization, and use of stem cells from the CNS. Annu Rev Neurosci 18: 159-192. or Gage F H, Coates P W, Palmer T D, Kuhn H G, Fisher L J, Suhonen J O, Peterson D A, Suhr S T, Ray J (1995b) Survival and differentiation of adult neuronal progenitor cells transplanted to the adult brain. Proc Natl Acad Sci USA 92:11879-11883.) Briefly, after fixation with 4% paraformaldehyde in PBS, cells were incubated with primary antibodies overnight at […]. Then the cells were incubated for 1 hr with secondary antibodies (Jackson Immunoresearch) conjugated to fluorescein isothiocyanate, or cyanin-3. Primary antibody concentrations used are as follows (mo=mouse monoclonal, rb=rabbit polyclonal, gp=guinea pig polyclonal): mo a-MAP2abc, 1:5000 (Sigma), mo a-MAP2ab, 1:500 (Sigma), mo a-p75NGFR, 1:10 (192-IgG hybridoma supernatant, a gift from C. E. Chandler, Stanford Univ., Stanford, Calif.), rb a-c-Fos (4),1:4000 (Santa Cruz Biotechnology, Santa Cruz, Calif.), gp a-GFAP, 1:500 (Advanced Immunochemicals, Long Beach, Calif.), rb a-GABA, 1:5000 (Sigma), mo a-TH, 1:500 (Boehringer Mannheim), rb a-calbindin 1:1000 (SWant, Bellinzona, Switzerland). Labeled cells were visualized using confocal scanning laser microscopy (Zeiss Axiovert, Thornwood, N.Y. and Bio-Rad MRC1000, Hemel Hempstead, UK) and color images were generated using Adobe Photoshop (Adobe Systems, Mountain View, Calif.). Both the average percentage and the absolute number +/− SEM of immunofluorescent cells were determined by counting 10 or 50 high power fields (20×) visualized under fluorescence. The total number of cells was counted using nuclear counterstaining with 4′,6diamidino-2-phenylindole (DAPI, Sigma). Statistical analyses were carried out using ANOVA test.
Histochemical Staining for AChE. Cholinergic cells were identified by histochemical staining for AChE by a modification of the staining method of Geneser-Jensen and Blackstadt. Distribution of acetylcholinesterase in the hippocampal region of the guinea pig. I. Entorhinal area parasubiculum, and pre-subiculum, Z Zellforsch 114:460-481(1971). […]

[3] = tested on: low-buoyancy cortical cells; experiment: Acquisition of neuron competence by low-buoyancy cortical cells in culture; details: 10% serum or 5 ng/ml PDGF instead of FGF-2
From the text: Tissue dissection: Three areas were dissected from adult rat brains as follows. Rats (170-190 g Fisher 344 males or females, Harlan) were deeply anesthetized with a mixture of ketamine, xylazine, and acepromazine. Animals were decapitated and whole brains removed. First, ˜1.5 mm of each optic nerve were harvested rostral to, but not including, the optic chiasma. The brain was then bisected longitudinally and each hippocampal lobe separated from the overlaying cortical white matter using the natural separation line along the alveus hippocampus. The white matter of the fimbria and subiculum was removed as much as possible. Some white matter remained. Finally, a 1.5 mm wide cortical ribbon containing parietal and frontal segments was dissected longitudinally, proximal to the central fissure. The pial and callosal surfaces were trimmed from each cortical ribbon to remove a majority of the meninges and white matter.
Tissue dissociation and fractionation: Tissues were finely minced and digested in a solution of papain (2.5 U/ml, Worthington), DNAse (250 U/ml, Worthington), and neutral protease (1 U/ml Dispase, Boehringer) dissolved in Hanks balanced salt solution, as described in Palmer T D, Ray J, Gage F H (1995), FGF-2-Responsive Neuronal Progenitors Reside in Proliferative and Quiescent Regions of the Adult Rodent Brain. Mol Cell Neurosci 6:474-486; and Gage F H, Coates P W, Palmer T D, Kuhn H G, Fisher L J, Suhonen J O, Peterson D A, Suhr S T, Ray J (1995), Survival and differentiation of adult neuronal progenitor cells transplanted to the adult brain. Proc Natl Acad Sci USA 92:11879-11883. Cells and tissue fragments were washed 3 times with Dulbecco's Modified Eagles Medium (DMEM) containing 10% […] bovine serum (defined FBS, Hyclone). Whole digested tissue was then suspended in DMEM 10% FBS, filtered through a sterile 107 μm nylon mesh and thoroughly mixed with an equal volume of PERCOLL™ (polyvinylpyrrolidone-coated silica colloids) solution. The PERCOLL™ (polyvinylpyrrolidone-coated silica colloids) solution was made by mixing 9 parts of PERCOLL™ (polyvinylpyrrolidone-coated silica colloids) (Pharmacia) with 1 part 10X phosphate buffered saline (PBS, Irvine Scientific). The cell suspension was then fractionated by centrifugation for 30 minute, 18°C., at 20,000×g. […]
To determine how rapidly cortical cells acquired the competence to differentiate into neurons in culture, cells were isolated and cultured in growth medium for various times, allowed to differentiate in differentiation medium and then evaluated for the presence of neurons. […] Cultures were also treated with BrdU for the first 10 days and the newly generated neurons were evaluated for evidence of cell division. All neurons scored were labeled (>99%).

Molecule | c-fos induction by each neurotrophin (NGF, BDNF, NT-3) ([1]; pretreatment with K-252a (100 nM)) | number of AChE-positive cells [2] | number of TH-positive cells [2] | number of calbindin-positive cells [2] | number of neurons expressing GABA [2] | induction of c-fos mRNA [1] | neuron formation in control cultures [3]
COC(=O)[C@@]1(O)C[C@H]2O[C@]1(C)n1c3ccccc3c3c4c(c5c6ccccc6n2c5c31)C(=O)NC4 [K-252a, reference compound] | blocked |  |  |  |  |  | 
NT-3: Neurotrophin-3 |  | small increases over control cultures | increased | increased | increased | slightly increased | 
PDGF |  |  |  |  |  |  | no neurons were formed
B1 |  | small increases over control cultures | not |  |  | minimal | 
B2 |  | most effective agent | increased | increased | increased | minimal | 
